# Measurements published in publication PMC7900760, “Perilipin 5 S155 phosphorylation by PKA is required for the control of hepatic lipid metabolism and glycemic control” (Journal of Lipid Research, 2021).
# T1: ATGL-CFP (adipose triglyceride lipase fused to CFP) (UniProt Q8BJ56 1-486)
# T1 construct: Adipose triglyceride lipase (ATGL); source: HeLa cells, transiently transfected (Lipofectamine 3000), in live cells
# T1 sequence (looked up): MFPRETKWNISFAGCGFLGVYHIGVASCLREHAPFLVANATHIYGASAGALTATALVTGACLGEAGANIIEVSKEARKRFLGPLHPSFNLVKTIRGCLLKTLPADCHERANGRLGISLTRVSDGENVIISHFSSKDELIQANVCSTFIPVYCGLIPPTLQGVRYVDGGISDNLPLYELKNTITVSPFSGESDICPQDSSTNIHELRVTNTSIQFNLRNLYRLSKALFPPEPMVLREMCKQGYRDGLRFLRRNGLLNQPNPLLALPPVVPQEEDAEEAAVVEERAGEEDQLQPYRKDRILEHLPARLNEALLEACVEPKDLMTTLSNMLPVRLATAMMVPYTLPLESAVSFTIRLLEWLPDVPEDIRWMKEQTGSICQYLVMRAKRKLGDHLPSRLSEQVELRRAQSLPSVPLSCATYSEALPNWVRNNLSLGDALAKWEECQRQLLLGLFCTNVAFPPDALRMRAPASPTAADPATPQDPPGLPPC
# T2: ABHD5-CFP (α-β hydrolase domain-containing 5 fused to CFP) (UniProt Q9DBL9 1-351)
# T2 construct: α-β hydrolase domain-containing 5 (ABHD5, also known as CGI-58); also called CGI-58; source: HeLa cells, transiently transfected (Lipofectamine 3000), in live cells
# T2 sequence (looked up): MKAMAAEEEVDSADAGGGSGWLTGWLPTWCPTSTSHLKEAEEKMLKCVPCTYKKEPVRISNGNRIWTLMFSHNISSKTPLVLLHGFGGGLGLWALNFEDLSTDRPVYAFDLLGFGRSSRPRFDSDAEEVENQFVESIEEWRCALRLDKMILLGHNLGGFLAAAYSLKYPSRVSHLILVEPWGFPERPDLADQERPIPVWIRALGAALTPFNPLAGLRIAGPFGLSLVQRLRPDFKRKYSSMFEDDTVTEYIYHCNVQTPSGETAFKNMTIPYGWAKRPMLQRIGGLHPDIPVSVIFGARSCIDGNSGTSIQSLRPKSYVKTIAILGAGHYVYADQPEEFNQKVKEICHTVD
# Key:
# [1] = molecular target: T1, ATGL-CFP (adipose triglyceride lipase …); experiment: FRET or BRET; phasor-based FLIM-FRET in live HeLa cells transiently co-transfected with a CFP donor (ATGL-CFP or ABHD5-CFP) and a YFP acceptor (PLIN5-YFP or PLIN5 S155A-YFP); 37°C, 5% CO2; before and after 20 μM forskolin; conditions: partners not purified
# [2] = molecular target: T2, ABHD5-CFP (α-β hydrolase …); experiment: as above; conditions: partners not purified
FRET efficiency [1],FRET efficiency [2],Binder
20%,25%,"PLIN5-YFP (perilipin 5 fused to YFP) (natural protein, mouse, UniProt Q8BVZ1 1-463, looked up, Perilipin 5 (PLIN5), murine; also called wild-type PLIN5; source: HeLa cells, transiently transfected (Lipofectamine 3000), in live cells) MDQRGEDTTLAPHSRMSGDQTAQDPGSSLGELDQQNVVNRVVALPLVKATCTAVSSAYNSAKDRHPLLGSACRLAEHCVCSVTTCALDHAQPLLEHLQPQLATVNDLACRGLDKLEEKLPFLQQPSDMVVTSAKDTVAKSVTGMVDLAQRGRRWSGELRRSMSQAMDMVLGKSEKLVDRFLPMTEAELAVLAAEAEGPEVGTVEEQRQQQGYFVRLGSLSARLRHLAYEHSLGKLRQSKHRTQEMLAQLQETLELIQHMQRGASPSPTFHPPKTQELWGSWSPCLENGRSHSEVELETLALSRSLTLELQNAVDALAGCVRGLPPSAQAKVAEVQRSVDALQATFADAHCLGDVAPTALAEGRGSVARAHACVDEFLDLVLRAMPLPWLVGPFAPILVEQSEPLINLATCVDEVVGDPDPRWAHMDWPAQKRAWEAESADPGGQEAEPPRGQGKHTMMPELDF"
20%,25%,"PLIN5 S155A-YFP (natural protein, mouse, UniProt Q8BVZ1 1-463, looked up, Perilipin 5 (PLIN5), murine, with the phosphorylation-defective S155A mutation; also called phospho-mutant S155A; source: HeLa cells, transiently transfected (Lipofectamine 3000), in live cells) MDQRGEDTTLAPHSRMSGDQTAQDPGSSLGELDQQNVVNRVVALPLVKATCTAVSSAYNSAKDRHPLLGSACRLAEHCVCSVTTCALDHAQPLLEHLQPQLATVNDLACRGLDKLEEKLPFLQQPSDMVVTSAKDTVAKSVTGMVDLAQRGRRWAGELRRSMSQAMDMVLGKSEKLVDRFLPMTEAELAVLAAEAEGPEVGTVEEQRQQQGYFVRLGSLSARLRHLAYEHSLGKLRQSKHRTQEMLAQLQETLELIQHMQRGASPSPTFHPPKTQELWGSWSPCLENGRSHSEVELETLALSRSLTLELQNAVDALAGCVRGLPPSAQAKVAEVQRSVDALQATFADAHCLGDVAPTALAEGRGSVARAHACVDEFLDLVLRAMPLPWLVGPFAPILVEQSEPLINLATCVDEVVGDPDPRWAHMDWPAQKRAWEAESADPGGQEAEPPRGQGKHTMMPELDF"
